Measured values taken from publication PMC10928113, “Molecular architecture and platelet-activating properties of small immune complexes assembled on heparin and platelet factor 4” (Communications Biology, 2024).
Values joined by “and” are separate entries in the source; they are usually repeats but may differ in a detail not shown here. Identical values can stand only once.

Columns and labels:
[1] = molecular target: the molecule itself; experiment: native MS; PF4 incubated with UFH, SEC sub-fractions of the small complexes; 150 mM ammonium acetate, pH 6.9; masses by limited charge reduction
[2] = molecular target: T1, recombinant form of human platelet factor 4 (PF4) (human, UniProt P02776); experiment: native MS; highest-MW SEC sub-fraction of PF4/UFH small complexes incubated with a nearly equimolar amount of KKO (antibody excess up to 33% also tested); 150 mM ammonium acetate, pH 6.9; limited charge reduction; details: both partners purified
T1 construct: platelet factor 4 (PF4), human, recombinant; stands as a tetramer in the complexes; also called recombinant PF4; PF4 tetramer

[3] = molecular target: T1, recombinant form of human platelet …; experiment: native MS; PF4·dp20 complexes incubated with a nearly equimolar amount of KKO (0.28 mg/mL and 0.06 mg/mL); 150 mM ammonium acetate, pH 6.9; details: both partners purified

| Binder | stoichiometry N [1] | stoichiometry N [2] | stoichiometry N [3] |
| --- | --- | --- | --- |
| recombinant form of human platelet factor 4 (PF4) (natural protein, platelet factor 4 (PF4), human, recombinant; stands as a tetramer in the complexes; also called recombinant PF4; PF4 tetramer) EAEEDGDLQCLCVKTTSQVRPRHITSLEVIKAGPHCPTAQLIATLKNGRKICLDLQAPLYKKIIKKLLES | 4 subunits (tetramer) | – | – |
| KKO monoclonal anti-PF4/heparin antibody (antibody, V domains shown, Whole IgG (measured 152.5 kDa); also called KKO mAb; KKO hybridoma clone 31.2.57.A7; source: KKO hybridoma clone 31.2.57.A7 (ATCC), supernatant, purified (Protein A Sepharose)) VH: VQLQQSGAELVKPGASVKLSCKASGYTFTNYFIYWVKQRPGQGLEWIGEINPRNGDTDFNEKFESRATLTVDKSSSTAYMQLSSLTSEDSAIYYCTRSPYGNNYGFTYWGQGTLVTVSA VL: DIQMIQSQKFMSTSVGDRVTVTCKASQNVGTNVAWYQQKPGQSPNALIYSASYRYSGVPDRFTGSGSGTDFTLTITNVQSEDLADYFCQQYNSYPLTFGTGTKLDLK | – | 1 KKO per complex of one heparin chain and two PF4 tetramers and 2 KKO per complex of one heparin chain and three PF4 tetramers | 1 PF4 tetramer per KKO and 2 PF4 tetramers per KKO |
